The supplement of paper PMC10126150
± gives the standard deviation of the averaged measurements.

Tested on: ATP
Assay: switch fluorescence ratio, 500 uM ATP over buffer (Cy3 cluster intensity, sum of 5 cycles each) (fold (ratio)); higher = stronger signal-on switching upon ATP binding; sequences stand for … in TCGTCGGCAGCGTCAGATGTGTATAAGAGACAGTTTTTTTTTTTTTTTTTTTTTTTTT…TC
Details: aptamer strand: ATP DNA aptamer (quencher-CACCTGGGGGAGTATTGCGGAGGAAGG + anchor), 100 nM annealed; ATP concentration: 500 uM
Method in brief: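 Five buffer/ATP imaging cycles were run on Cy3-labelled switching-strand clusters on a modified Illumina MiSeq flow-cell, with NaOH stripping and re-annealing between cycles. In each cycle, clusters annealed to 100 nM quencher-labelled ATP aptamer were imaged in selection buffer, then after 15 min with 500 uM ATP at 22 °C. Per cluster, the fluorescence ratio is summed target-cycle over summed buffer-cycle Cy3 intensity, averaged per switch-domain sequence. Only clusters within 100-1000 RFU were kept.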
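Further: ATP exposure 15 min at 22 °C before imaging.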

Sequence | switch fluorescence ratio
CGAGCAGTAG | 3.57 ± 0.31
CGAGCAGTTA | 1.19 ± 0.074
CGAGCCCTTG | 1.027 ± 0.0065
CGAGCCTGGT | 1.02 ± 0.035
CGAGCCTTAA | 1.09 ± 0.035
CGAGCGGGTA | 0.989 ± 0.028
CGAGCTCTCG | 1.002 ± 0.0075
CGAGGATGTG | 0.964 ± 0.035
CGAGGGAATG | 1.1 ± 0.18
CGAGGGAGCA | 1.01 ± 0.025
CGAGGGATCA | 0.9947 ± 0.0011
CGAGGGCGGG | 0.999 ± 0.016
CGAGGGGGG | 0.997 ± 0.015
CGAGGGGGGT | 1.02 ± 0.027
CGAGGGGGTA | 1.02 ± 0.077
CGAGGGTAGG | 1.04 ± 0.025
CGAGGGTCGG | 1.01 ± 0.042
CGAGGGTGAG | 1.01 ± 0.042
CGAGGTAGTT | 0.975 ± 0.026
CGAGGTCAGT | 1.044 ± 0.01
CGAGGTGGCG | 0.958 ± 0.06
CGAGGTTTTC | 0.9817 ± 0.0056
CGAGTAGGAA | 0.984 ± 0.017
CGAGTAGGTT | 1.01 ± 0.011
CGAGTATGGA | 0.9923 ± 0.0042
CGAGTCAGA | 1.067 ± 0.0096

Sequence | switch fluorescence ratio
CGAGTCGACG | 0.99 ± 0.07
CGAGTCGCGA | 1.04 ± 0.062
CGAGTGAAAT | 1 ± 0.018
CGAGTGAATC | 1.01 ± 0.019
CGAGTGGAGG | 1.03 ± 0.011
CGAGTGGCGA | 1.077 ± 0.0022
CGAGTGGCGG | 0.968 ± 0.023
CGAGTGGGGA | 1.04 ± 0.041
CGAGTTAATT | 1.014 ± 0.0097
CGAGTTAGGG | 0.9906 ± 0.0021
CGAGTTTTGC | 1.03 ± 0.026
CGAGTTTTTT | 1 ± 0.021
CGATACACGT | 1.04 ± 0.029
CGATAGATGA | 0.993 ± 0.018
CGATATATTA | 0.9874 ± 0.0053
CGATATATTG | 0.988 ± 0.013
CGATATTGCC | 0.9909 ± 0.0097
CGATCAATAT | 2.38 ± 0.035
CGATCCGCGG | 0.942 ± 0.14
CGATGAGTTT | 1.01 ± 0.033
CGATGATGGA | 0.999 ± 0.017
CGATGCGGTG | 1.05 ± 0.033
CGATGGCGTT | 0.96 ± 0.016
CGATGGCTA | 0.965 ± 0.041
CGATGTAGGT | 1.02 ± 0.025
CGATGTAGTA | 1.016 ± 0.0058

Sequence | switch fluorescence ratio
CGATGTATTT | 1.01 ± 0.048
CGATGTGGGT | 0.989 ± 0.044
CGATGTTTAG | 0.986 ± 0.019
CGATTACGAT | 1.01 ± 0.03
CGATTAGGGG | 1 ± 0.012
CGATTAGTTG | 0.998 ± 0.032
CGATTCTCAA | 1.021 ± 0.0006
CGATTCTGAG | 1 ± 0.024
CGATTGCGTG | 1 ± 0.05
CGATTGTCTG | 0.958 ± 0.02
CGATTGTGCG | 1.04 ± 0.029
CGATTTCAGA | 1.009 ± 0.01
CGATTTGGGT | 1.02 ± 0.042
CGATTTGTAA | 0.99 ± 0.031
CGATTTTCCT | 1.01 ± 0.015
CGATTTTGAT | 1.01 ± 0.013
CGCAAAATTT | 1.11 ± 0.11
CGCAAAGGGG | 1.39 ± 0.29
CGCACAGTCA | 1.06 ± 0.023
CGCACGGGGG | 1.01 ± 0.031
CGCAGTTTTA | 1.055 ± 0.0065
CGCATGTACG | 1.14 ± 0.16
CGCATTAAGG | 1.11 ± 0.03
CGCCAGCAGC | 1.6 ± 0.035
CGCCCTCAAG | 1.03 ± 0.029
CGCCGAGTTT | 1.05 ± 0.071

Sequence | switch fluorescence ratio
CGCCGTCTGG | 1.03 ± 0.0039
CGCCTCGAGG | 0.9786 ± 0.0027
CGCCTGGCTT | 1 ± 0.013
CGCCTTAATT | 1.01 ± 0.042
CGCGAGGGCC | 1.1 ± 0.08
CGCGATATTG | 1.58 ± 0.018
CGCGCGGAAC | 0.98 ± 0.019
CGCGGAGGGT | 0.967 ± 0.016
CGCGGCAGGA | 1.02 ± 0.019
CGCGGGATGT | 1.02 ± 0.045
CGCGGGGAGC | 1.07 ± 0.088
CGCGGGGGGT | 0.992 ± 0.018
CGCGGGTATT | 1.02 ± 0.017
CGCGGGTGGT | 1.02 ± 0.012
CGCGGGTTCA | 1.03 ± 0.037
CGCGGTTGAC | 1.12 ± 0.03
CGCGTACATT | 1.05 ± 0.077
CGCGTACGGA | 0.989 ± 0.005
CGCGTTATGT | 1.03 ± 0.0081
CGCGTTGTGG | 1.03 ± 0.012
CGCTACAATG | 1.0456 ± 0.00099
CGCTAGGAGG | 0.997 ± 0.036
CGCTAGGGGA | 1.07 ± 0.041
CGCTAGGGGG | 1.06 ± 0.026
CGCTCAAGGG | 1.031 ± 0.0042
CGCTCGTATT | 1.019 ± 0.009

Sequence | switch fluorescence ratio
CGCTCTGCGT | 1.01 ± 0.033
CGCTGAAAGG | 1.02 ± 0.026
CGCTGACATT | 1.019 ± 0.0034
CGCTGAGAGG | 1 ± 0.027
CGCTGCTCGA | 1.06 ± 0.013
CGCTGGTTGT | 0.9855 ± 0.0013
CGCTTATATC | 2.8 ± 0.32
CGCTTATTAA | 1.072 ± 0.0033
CGCTTCGTGA | 1.06 ± 0.059
CGCTTGCCAG | 0.972 ± 0.027
CGCTTTGGCG | 0.959 ± 0.061
CGCTTTGGGT | 0.99 ± 0.018
CGGAAAAAAT | 1.19 ± 0.19
CGGAAAAGGG | 0.993 ± 0.064
CGGAAAATGT | 0.962 ± 0.016
CGGAACATGC | 1.6 ± 0.12
CGGAACCACG | 1.08 ± 0.045
CGGAACGCA | 2.01 ± 0.046
CGGAACGCGA | 4.09 ± 0.093
CGGAAGATTA | 0.9588 ± 0.0045
CGGAAGCATT | 1.44 ± 0.017
CGGAAGGCTT | 0.982 ± 0.0095
CGGAAGTCTT | 0.992 ± 0.024
CGGAAGTTGG | 0.996 ± 0.02
CGGAATGATA | 1 ± 0.018
CGGAATGGTA | 1.08 ± 0.067

Sequence | switch fluorescence ratio
CGGAATGTGT | 1 ± 0.015
CGGAATGTTT | 1.05 ± 0.057
CGGACAGGGA | 1.03 ± 0.035
CGGACAGGGT | 0.992 ± 0.013
CGGACCGGAA | 1.011 ± 0.01
CGGACGGGGG | 0.999 ± 0.036
CGGACGTTGG | 0.973 ± 0.045
CGGAGAAGGA | 0.98471 ± 0.00067
CGGAGCGGCG | 1.042 ± 0.0095
CGGAGGCAGG | 1.21 ± 0.28
CGGAGGCGTT | 0.986 ± 0.041
CGGAGGGGAA | 1 ± 0.014
CGGAGGGGTA | 1.13 ± 0.16
CGGAGGTAAG | 0.994 ± 0.011
CGGAGTAACG | 1.04 ± 0.03
CGGAGTGAGG | 1.02 ± 0.014
CGGAGTGCGG | 0.983 ± 0.064
CGGAGTGCTT | 1.03 ± 0.021
CGGAGTGGTA | 1.09 ± 0.014
CGGAGTGTGC | 1.23 ± 0.047
CGGAGTTGGA | 1.04 ± 0.041
CGGATCCTTC | 1.02 ± 0.037
CGGATCTCGC | 1.03 ± 0.01
